Assays:
[1] = molecular target: endogenous P-TEFb complex (positive transcription elongation factor b) (UniProt P50750); assay: cell-based or functional assay
[2] = molecular target: endogenous P-TEFb complex (positive transcription elongation factor b) (UniProt P50750); assay: GST pull-down of endogenous P-TEFb from cell extract, read out by the Tat-associated kinase assay

Chain of UniProt P50750 (P50750 whole entry, chain 1 of 2): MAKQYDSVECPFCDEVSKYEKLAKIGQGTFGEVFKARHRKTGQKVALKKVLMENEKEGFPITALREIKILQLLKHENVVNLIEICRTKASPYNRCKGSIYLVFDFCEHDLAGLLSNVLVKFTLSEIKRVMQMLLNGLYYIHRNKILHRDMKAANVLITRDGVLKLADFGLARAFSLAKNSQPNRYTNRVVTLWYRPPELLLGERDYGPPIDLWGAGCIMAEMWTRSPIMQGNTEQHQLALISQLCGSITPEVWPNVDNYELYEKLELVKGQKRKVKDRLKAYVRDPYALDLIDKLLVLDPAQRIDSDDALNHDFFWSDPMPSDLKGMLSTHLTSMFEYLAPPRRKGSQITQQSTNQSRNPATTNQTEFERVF
Chain of UniProt P50750 (O60563 whole entry, chain 2 of 2, further chain): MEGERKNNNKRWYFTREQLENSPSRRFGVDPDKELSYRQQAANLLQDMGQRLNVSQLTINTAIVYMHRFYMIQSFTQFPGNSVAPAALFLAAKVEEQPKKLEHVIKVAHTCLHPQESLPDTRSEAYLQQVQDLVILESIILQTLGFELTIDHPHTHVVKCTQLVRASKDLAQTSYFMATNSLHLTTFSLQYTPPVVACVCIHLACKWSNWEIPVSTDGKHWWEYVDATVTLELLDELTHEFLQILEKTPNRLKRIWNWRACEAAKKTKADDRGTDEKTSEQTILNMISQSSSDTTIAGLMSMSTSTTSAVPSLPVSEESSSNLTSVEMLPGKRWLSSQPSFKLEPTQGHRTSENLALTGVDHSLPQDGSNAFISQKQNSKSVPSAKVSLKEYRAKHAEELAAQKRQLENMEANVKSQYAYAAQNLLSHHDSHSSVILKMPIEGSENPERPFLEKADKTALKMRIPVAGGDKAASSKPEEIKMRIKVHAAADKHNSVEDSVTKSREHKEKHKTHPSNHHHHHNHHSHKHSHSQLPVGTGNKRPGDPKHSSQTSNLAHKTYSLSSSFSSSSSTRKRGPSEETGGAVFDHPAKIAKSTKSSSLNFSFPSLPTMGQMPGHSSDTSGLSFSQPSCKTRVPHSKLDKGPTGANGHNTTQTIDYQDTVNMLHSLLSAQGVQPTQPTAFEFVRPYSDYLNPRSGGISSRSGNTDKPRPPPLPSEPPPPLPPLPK

GST-Tat T23N (1-72) (from UniProt P04608 1-72)
extent of CTD phosphorylation (Tat-associated kinase assay after GST pull-down; U937 or 293 cell extract) (fold over wild-type Tat) [1]: 3.5 | fold stronger binding than wild-type Tat [2]: 3.5 fold

Source: patent US20050221288A1
